Experimental data reported in patent US20140294817A1 (LEUKOSIGHT, published 2014).

What was measured:
Fcγ-receptor IIb [1] = target: T1, Fcγ-receptor IIb (mice, UniProt P08101 30-330); assay: flow cytometry saturation binding on HeLa cells expressing RFP-tagged FcγRIIb (FIG. 61B, left panel)
T1 construct: whole, on cells; HeLa cells transfected with an FcγRIIb plasmid, RFP-tagged; also called FcγRIIb; not shown: red fluorescent protein tag (RFP) attached to the intracellular portion
T1 sequence (looked up): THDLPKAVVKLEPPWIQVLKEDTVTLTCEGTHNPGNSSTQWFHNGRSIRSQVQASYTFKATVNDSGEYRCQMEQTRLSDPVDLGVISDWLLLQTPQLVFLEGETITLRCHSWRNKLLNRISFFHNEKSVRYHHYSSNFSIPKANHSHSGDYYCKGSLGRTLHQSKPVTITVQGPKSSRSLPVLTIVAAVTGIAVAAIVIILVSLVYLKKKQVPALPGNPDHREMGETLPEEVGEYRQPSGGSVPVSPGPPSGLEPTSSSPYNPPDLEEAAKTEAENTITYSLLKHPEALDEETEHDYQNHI
From the text: (§1) There are four Fc-gamma receptors (FcγRs) in mice including: Fcγ-receptor I, Fcγ-receptor III, Fcγ-receptor IV, and Fcγ-receptor IIb. The genes for each of the Fcγ-receptor I, Fcγ-receptor III, Fcγ-receptor IV, and Fcγ-receptor IIb were cloned into four separate plasmids. […] A red fluorescent protein tag (RFP) is attached to the intracellular portion of the FcγR (FIG. 56A). Thus, binding to the FcγR of a transfected HeLa cell will result in a signal transduction that causes the cells to fluoresce red, which may be measured by flow cytometry.
(§2) Polypeptides comprising a first and second Fc fragment of rabbit IgG in dimeric form and whole rabbit IgG were quantified by ELISA, using the whole rabbit IgG as the standards. HeLa cells that express FcγRI, HeLa cells that express FcγRIIb, HeLa cells that express FcγRIII, and HeLa cells that express FcγRIV as described in Example 13 were stained with 2-fold series diluted either with polypeptides comprising a first and second Fc fragment of rabbit IgG in dimeric form or whole rabbit IgG. The cells were then stained with Zenon Alexa Fluor 488 rabbit IgG labeling kits. […] The HeLa cells that express FcγRI, HeLa cells that express FcγRIIb, HeLa cells that express FcγRIII, and HeLa cells that express FcγRIV were gated by red fluorescence (RFP); and the mean fluorescence of Alexa Fluor was measured for the Saturation Binding Curves (FIGS. 61A-D).

Fcγ-receptor III [2] = target: T2, Fcγ-receptor III (mice, UniProt P08508 31-261); assay: flow cytometry saturation binding on HeLa cells expressing FcγRIII; reference rabbit IgG
T2 construct: whole, on cells; HeLa cells transfected with an FcγRIII plasmid, RFP-tagged; also called FcγRIII; not shown: red fluorescent protein tag (RFP) attached to the intracellular portion
T2 sequence (looked up): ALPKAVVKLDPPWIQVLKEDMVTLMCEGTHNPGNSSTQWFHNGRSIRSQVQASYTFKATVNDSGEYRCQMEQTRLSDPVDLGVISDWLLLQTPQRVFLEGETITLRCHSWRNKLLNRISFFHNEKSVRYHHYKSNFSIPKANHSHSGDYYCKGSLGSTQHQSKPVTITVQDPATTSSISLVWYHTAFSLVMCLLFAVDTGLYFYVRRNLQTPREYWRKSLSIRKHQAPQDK
From the text: as §1, §2

Fcγ-receptor IV [3] = target: T3, Fcγ-receptor IV (mice); assay: flow cytometry saturation binding on HeLa cells expressing FcγRIV; reference rabbit IgG
T3 construct: whole, on cells; HeLa cells transfected with an FcγRIV plasmid, RFP-tagged; also called FcγRIV
T3 sequence (A0A0B4J1G0 whole entry, looked up): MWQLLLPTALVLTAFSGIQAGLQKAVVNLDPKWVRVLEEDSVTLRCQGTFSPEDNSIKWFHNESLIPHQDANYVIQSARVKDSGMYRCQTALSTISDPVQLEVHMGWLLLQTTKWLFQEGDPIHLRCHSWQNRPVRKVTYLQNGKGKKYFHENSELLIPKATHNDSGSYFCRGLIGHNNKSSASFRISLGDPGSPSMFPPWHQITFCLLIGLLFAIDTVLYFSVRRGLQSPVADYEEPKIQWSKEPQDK
From the text: as §1, §2

Fcγ-receptor I [4] = target: T4, Fcγ-receptor I (mice, UniProt P26151 25-404); assay: flow cytometry saturation binding on HeLa cells expressing FcγRI; reference rabbit IgG
T4 construct: whole, on cells; HeLa cells transfected with an FcγRI plasmid, RFP-tagged; also called FcγRI; not shown: red fluorescent protein tag (RFP) attached to the intracellular portion
T4 sequence (looked up): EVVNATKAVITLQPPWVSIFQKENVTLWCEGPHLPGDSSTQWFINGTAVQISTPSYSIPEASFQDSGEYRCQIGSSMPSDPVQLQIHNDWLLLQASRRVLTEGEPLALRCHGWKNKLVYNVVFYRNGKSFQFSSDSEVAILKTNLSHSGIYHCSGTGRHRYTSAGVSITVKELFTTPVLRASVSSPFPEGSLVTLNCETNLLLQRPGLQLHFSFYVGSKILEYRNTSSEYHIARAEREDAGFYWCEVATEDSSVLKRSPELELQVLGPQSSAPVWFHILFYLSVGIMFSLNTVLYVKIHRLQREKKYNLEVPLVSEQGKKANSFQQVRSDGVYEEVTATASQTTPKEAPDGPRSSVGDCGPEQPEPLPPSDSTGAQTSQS
From the text: as §1, §2

Fcγ-receptor III [5] = target: T2, Fcγ-receptor III; assay: flow cytometry saturation binding on HeLa cells expressing RFP-tagged FcγRIII (FIG. 61C, left panel)
From the text: as §1, §2

Fcγ-receptor I [6] = target: T4, Fcγ-receptor I; assay: flow cytometry saturation binding on HeLa cells expressing RFP-tagged FcγRI (FIG. 61A, left panel)
From the text: as §1, §2

Fcγ-receptor IIb [7] = target: T1, Fcγ-receptor IIb; assay: flow cytometry saturation binding on HeLa cells expressing FcγRIIb; reference rabbit IgG
From the text: as §1, §2

Fcγ-receptor IV [8] = target: T3, Fcγ-receptor IV; assay: flow cytometry saturation binding on HeLa cells expressing RFP-tagged FcγRIV (FIG. 61D, left panel)
From the text: as §1, §2

B1: polypeptide comprising a first and second Fc fragment of rabbit IgG in dimeric form (Fc fusion)
chain: GGSHHHHHHGMASMTGGQQMGRDLYDDDDKAPSTCSKPTCPPPELLGGPSVFIFPPKPKDTLMISRTPEVTCVVVDVSQDDPEVQFTWYINNEQVRTARPPLREQQFNSTIRVVSTLPIAHQDWLRGKEFKCKVHNKALPAPIEKTISKARGQPLEPKVYTMGPPREELSSRSVSLTCMINGFYPSDISVEWEKNGKAEDNYKTTPAVLDSDGSYFLYSKLSVPTSEWQRGDVFTCSVMHEALHNHYTQKSISRSPGKDIVRSSKPTCPPPELLGGPSVFIFPPKPKDTLMISRTPEVTCVVVDVSQDDPEVQFTWYINNEQVRTARPPLREQQFNSTIRVVSTLPIAHQDWLRGKEFKCKVHNKALPAPIEKTISKARGQPLEPKVYTMGPPREELSSRSVSLTCMINGFYPSDISVEWEKNGKAEDNYKTTPAVLDSDGSYFLYSKLSVPTSEWQRGDVFTCSVMHEALHNHYTQKSISRSPGK
notes: The supernatants hold monomeric and dimeric forms; also called dimeric polypeptides; polypeptides in dimeric form
Fcγ-receptor IIb [1]
  Kd: ≤ 9.8 nM
Fcγ-receptor III [2]
  fold enhancement of binding against rabbit IgG: ≥ 223 fold
Fcγ-receptor IV [3]
  fold enhancement of binding against rabbit IgG: ≥ 191 fold
Fcγ-receptor I [4]
  fold enhancement of binding against rabbit IgG: ≥ 57.5 fold
Fcγ-receptor III [5]
  Kd: ≤ 10.4 nM
Fcγ-receptor I [6]
  Kd: ≤ 3.5 nM
Fcγ-receptor IIb [7]
  fold enhancement of binding against rabbit IgG: ≥ 61.7 fold
Fcγ-receptor IV [8]
  Kd: ≤ 6.3 nM
